From the supplement of paper PMC10724198

Tests used:
[1] = test system: Saccharomyces cerevisiae; test: protein stability index of tFT-peptide fusion in wild type (PSI (0-1 scale)); higher = more stable (slower turnover); conditions: genetic background: wild type
Procedure: (§1)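 MPS profiling in S. cerevisiae of two library types built from selected 12-aa C-degron peptides (IN1, IN2, LN1, LN3, VN2, R1-R5, W1-W3, Atg1 and Rpa12 C-termini): saturation mutagenesis libraries and C-terminal +1 capping libraries (13 aa). Each peptide is fused to the C-terminus of a sfGFP-mCherry timer, after a GGGS linker. Cells are FACS-sorted into 8 mCherry/sfGFP bins and sequenced. PSI runs from 0 (unstable) to 1 (stable), measured once in wild type and in the das1Δ or doa10Δ background.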

[2] = test system: Saccharomyces cerevisiae; test: protein stability index of tFT-peptide fusion in deletion strain of DAS1 (PSI (0-1 scale)); higher = more stable (slower turnover)
Procedure: as §1
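For protein stability index of tFT-peptide fusion in deletion strain of DAS1 in this document: PSI is a weighted mean of each variant's read distribution over the sorted stability bins, computed only for variants having over 10 reads in total.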
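For protein stability index of tFT-peptide fusion in wild type in this document: PSI derived as read-weighted mean over the 8 sorting bins, only variants exceeding 10 total reads kept, mCherry placed adjacent to the peptide and sfGFP distal.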

Sequence | protein stability index [1] | protein stability index [2]
LVVYYSCVACIN | 0.0106 | 0.0266
PSLAASFKRVVG | 0.683 | 0.677
PSLAASFGRVVG | 0.661 | 0.672
PSLAASFWRVVL | 0.617 | 0.724
VRGAMGGWRLVG | 0.202 | 0.746
FSMRWTQRYWVN | 0.117 | 0.545
PSKAASFWRVVG | 0.139 | 0.686
FSMRATFRYWVN | 0.0843 | 0.545
KKHKKGEKQKIN | 0.082 | 0.658
RLIQPLPVQFLNI | 0.627 | 0.644
KKHIKGQKQKIN | 0.0778 | 0.598
ANWRVGLWRGAS | 0.498 | 0.685
KKHFKGQKQKIN | 0.0456 | 0.594
LVVYLSCVACQN | 0.0434 | 0.097
KKHKKGQKQKIF | 0.218 | 0.602
RLIQPLPDQFLN | 0.61 | 0.631
RLIQPLPYQFLN | 0.0818 | 0.621
PDKRNHLIELLN | 0.272 | 0.702
RLIYPLPVQFLN | 0.0272 | 0.58
PDKRLHLIKLLN | 0.126 | 0.629

Sequence | protein stability index [1] | protein stability index [2]
RLIQPLPVCFLN | 0.0773 | 0.582
LKILPQKMNHQN | 0.417 | 0.686
KKHKKGQKQKINK | 0.647 | 0.659
LVVYLSCVACII | 0.0175 | 0.0431
PDKRNPLIKLLN | 0.42 | 0.581
PDKRNHLIKLLNY | 0.16 | 0.657
LLILRQKMNHQN | 0.155 | 0.673
RLIQPLPVQNLN | 0.447 | 0.645
KKHKKGQKQDIN | 0.795 | 0.601
RLIQPLPVQFLNT | 0.614 | 0.639
KRHKKGQKQKIN | 0.0723 | 0.634
PDKRNHLIKLLNE | 0.564 | 0.662
RLIQPLRVQFLN | 0.06 | 0.593
CTSCGYGFRTNN | 0.594 | 0.693
VRGAFGGWRLVG | 0.144 | 0.668
ARWRVGLPRGAS | 0.688 | 0.666
VRGAVGGWRLVK | 0.668 | 0.689
VRGAVGGWRLVGY | 0.638 | 0.682
LVVYLSCVAEIN | 0.0146 | 0.0269
KKIKKGQKQKIN | 0.06 | 0.58

Sequence | protein stability index [1] | protein stability index [2]
YDKRNHLIKLLN | 0.138 | 0.581
RLIQSLPVQFLN | 0.0478 | 0.574
RLIQVLPVQFLN | 0.0583 | 0.611
LSVYLSCVACIN | 0.0226 | 0.145
PSLAASFWRNVG | 0.17 | 0.7
PSLAASFWRVMG | 0.144 | 0.664
LKILRQKMNHQM | 0.244 | 0.656
ARWRVGLWRGWS | 0.668 | 0.69
RLIQPLPVQFLNC | 0.486 | 0.635
RLIQRLPVQFLN | 0.0385 | 0.646
CTSIGYKFRTNN | 0.153 | 0.695
PDKRVHLIKLLN | 0.128 | 0.61
PDKRNHLVKLLN | 0.133 | 0.585
VRGAVGGWREVG | 0.504 | 0.654
FSMRWTFRYWVNL | 0.139 | 0.549
FSLRWTFRYWVN | 0.0436 | 0.467
FSMRWTFRYWKN | 0.634 | 0.524
VRGAVGGWGLVG | 0.28 | 0.616
